Results taken from patent US8673862 (dated 2014).

T1: angiotensin converting enzyme (ACE) (UniProt P12821)
T1 chain: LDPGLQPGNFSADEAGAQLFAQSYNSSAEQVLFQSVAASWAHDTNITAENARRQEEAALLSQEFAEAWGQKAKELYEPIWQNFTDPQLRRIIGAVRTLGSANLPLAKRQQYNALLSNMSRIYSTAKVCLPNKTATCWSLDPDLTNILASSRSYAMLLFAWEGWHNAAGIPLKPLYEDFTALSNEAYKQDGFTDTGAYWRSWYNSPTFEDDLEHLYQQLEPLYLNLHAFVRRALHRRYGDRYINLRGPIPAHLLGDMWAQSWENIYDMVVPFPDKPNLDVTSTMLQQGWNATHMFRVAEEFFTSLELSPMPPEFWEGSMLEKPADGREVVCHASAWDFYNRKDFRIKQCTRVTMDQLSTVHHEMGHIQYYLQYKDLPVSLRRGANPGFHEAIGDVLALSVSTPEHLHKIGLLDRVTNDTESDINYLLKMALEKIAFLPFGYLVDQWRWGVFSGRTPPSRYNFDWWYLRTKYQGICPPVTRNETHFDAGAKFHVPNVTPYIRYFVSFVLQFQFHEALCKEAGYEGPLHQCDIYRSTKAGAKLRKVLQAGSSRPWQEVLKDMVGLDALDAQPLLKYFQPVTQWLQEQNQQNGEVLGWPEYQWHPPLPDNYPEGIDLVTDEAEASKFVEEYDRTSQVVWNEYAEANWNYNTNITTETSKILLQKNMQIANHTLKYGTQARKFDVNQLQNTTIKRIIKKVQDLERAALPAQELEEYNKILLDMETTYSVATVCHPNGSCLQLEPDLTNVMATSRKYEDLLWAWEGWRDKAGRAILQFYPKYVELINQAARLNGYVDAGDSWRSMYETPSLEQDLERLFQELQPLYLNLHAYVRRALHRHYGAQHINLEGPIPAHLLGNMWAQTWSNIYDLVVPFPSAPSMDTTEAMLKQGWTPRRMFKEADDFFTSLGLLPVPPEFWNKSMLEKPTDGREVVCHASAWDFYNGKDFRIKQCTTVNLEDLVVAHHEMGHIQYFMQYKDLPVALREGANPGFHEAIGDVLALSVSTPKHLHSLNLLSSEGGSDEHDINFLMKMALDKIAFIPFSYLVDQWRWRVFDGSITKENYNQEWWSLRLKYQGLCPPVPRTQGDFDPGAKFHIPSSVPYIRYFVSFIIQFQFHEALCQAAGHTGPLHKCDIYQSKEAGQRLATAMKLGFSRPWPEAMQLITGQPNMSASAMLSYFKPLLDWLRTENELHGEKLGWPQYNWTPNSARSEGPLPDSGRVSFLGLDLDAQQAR


Target: T1, angiotensin converting enzyme (ACE)
Assay: other, ACE inhibition

| Binder | IC50 [µM] |
| --- | --- |
| PDT | 272 |
| NDEG | 768 |
| LF | 83 |
| FVNHF | 51.1 |
| FV | 979 |
| GLF | 83 |
| GNF | 26.9 |
| LL | 345 |
| NSL | 64.9 |
| KK | 921 |

The remaining lines, values ahead:

| IC50 [µM] | Binder |
| --- | --- |
| 526 | TYA |
| 368 | WN |
| 15.6 | TSF |
| 35.5 | VGGS |
| 257 | YY |
| 46.2 | TF |
| 77 | VVN |
